Numbered stars: 1 amine (or outer) side, 2 acyl side, 3 side chain; on linkers, the order of the positions; unused ones are H or OH. Square brackets hold non-standard residues; d marks the D form. Side chains are listed from the residue outwards. Ends that are not written are not given here. * marks the point of attachment. C20 diacid = O=C(O)CCCCCCCCCCCCCCCCCCC(=O)*; αMePhe(2-F) = C[C@](N)(Cc1ccccc1F)C(=O)O; γGlu = O=C(O)[C@H](CCC(=O)[*:2])N[*:1]; αMeL = CC(C)C[C@](C)(N)C(=O)O; AEEA = NCCOCCOCC(=O)O; Aib = CC(C)(N)C(=O)O
T1: human GIP receptor (human, UniProt P48546 22-466)
T1 construct: whole, on cells; Used as crude membranes of stably transfected CHO cells; also called hGIPR
T1 sequence (looked up): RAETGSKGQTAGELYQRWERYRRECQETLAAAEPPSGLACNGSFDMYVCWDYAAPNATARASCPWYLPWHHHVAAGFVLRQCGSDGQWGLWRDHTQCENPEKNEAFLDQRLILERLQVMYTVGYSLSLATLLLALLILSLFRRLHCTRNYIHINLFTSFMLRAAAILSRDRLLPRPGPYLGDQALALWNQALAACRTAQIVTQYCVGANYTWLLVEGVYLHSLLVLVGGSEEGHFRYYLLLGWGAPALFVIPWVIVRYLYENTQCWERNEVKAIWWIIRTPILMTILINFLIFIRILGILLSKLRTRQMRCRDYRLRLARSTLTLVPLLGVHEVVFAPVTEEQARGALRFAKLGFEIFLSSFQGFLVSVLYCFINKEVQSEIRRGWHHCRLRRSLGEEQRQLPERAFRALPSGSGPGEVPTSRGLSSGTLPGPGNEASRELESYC


Experiments:
human glucagon receptor = biological target: T2, human glucagon receptor (human, UniProt P47871 26-477); assay: SPA, [125I]-Gcg displacement, hGcgR membranes
T2 construct: whole, on cells; Used as crude membranes of stably transfected HEK293 cells; also called hGcgR; hGLcgR

human GLP-1 receptor = biological target: T3, human GLP-1 receptor (human, UniProt P43220 24-463); assay: SPA, [125I]-GLP-1 displacement, hGLP-1R membranes
T3 construct: whole, on cells; Used as crude membranes of stably transfected HEK293 cells; also called hGLP1R; hGLP-1R

human GIP receptor = biological target: T1, human GIP receptor; assay: SPA, [125I]-GIP displacement, hGIPR membranes

T2 sequence (P47871 26-477): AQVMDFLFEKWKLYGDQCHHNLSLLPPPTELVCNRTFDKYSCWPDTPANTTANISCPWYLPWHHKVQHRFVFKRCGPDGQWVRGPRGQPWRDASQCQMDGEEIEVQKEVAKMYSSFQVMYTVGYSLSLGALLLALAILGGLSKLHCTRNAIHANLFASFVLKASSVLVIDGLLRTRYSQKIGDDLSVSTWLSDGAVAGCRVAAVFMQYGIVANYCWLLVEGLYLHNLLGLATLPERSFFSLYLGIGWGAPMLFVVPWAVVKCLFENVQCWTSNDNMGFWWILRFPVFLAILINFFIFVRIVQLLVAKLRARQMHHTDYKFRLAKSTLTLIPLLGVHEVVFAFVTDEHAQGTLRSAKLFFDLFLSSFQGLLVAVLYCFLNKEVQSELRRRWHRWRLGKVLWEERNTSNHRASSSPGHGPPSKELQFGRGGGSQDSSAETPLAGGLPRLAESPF

| Binder | Ki (human glucagon receptor) [nM] | Ki (human GLP-1 receptor) [nM] | Ki (human GIP receptor) [nM] |
| --- | --- | --- | --- |
| YPEGTFTSDYSILLDKK([AEEA-AEEA-γGlu-C20 diacid])AQ[Aib]AFIEYLIEGGPSSGAPPPS-NH2 (N-terminus assumed; SMILES CC[C@H](C)[C@H](NC(=O)[C@H](CC(C)C)NC(=O)[C@H](Cc1ccc(O)cc1)NC(=O)[C@H](CCC(=O)O)NC(=O)[C@@H](NC(=O)[C@H](Cc1ccccc1)NC(=O)[C@H](C)NC(=O)C(C)(C)NC(=O)[C@H](CCC(N)=O)NC(=O)[C@H](C)NC(=O)[C@H](CCCCNC(=O)COCCOCCNC(=O)COCCOCCNC(=O)CC[C@H](NC(=O)CCCCCCCCCCCCCCCCCCC(=O)O)C(=O)O)NC(=O)[C@H](CCCCN)NC(=O)[C@H](CC(=O)O)NC(=O)[C@H](CC(C)C)NC(=O)[C@H](CC(C)C)NC(=O)[C@@H](NC(=O)[C@H](CO)NC(=O)[C@H](Cc1ccc(O)cc1)NC(=O)[C@H](CC(=O)O)NC(=O)[C@H](CO)NC(=O)[C@@H](NC(=O)[C@H](Cc1ccccc1)NC(=O)[C@@H](NC(=O)CNC(=O)[C@H](CCC(=O)O)NC(=O)[C@@H]1CCCN1C(=O)[C@@H](N)Cc1ccc(O)cc1)[C@@H](C)O)[C@@H](C)O)[C@@H](C)CC)[C@@H](C)CC)C(=O)N[C@@H](CCC(=O)O)C(=O)NCC(=O)NCC(=O)N1CCC[C@H]1C(=O)N[C@@H](CO)C(=O)N[C@@H](CO)C(=O)NCC(=O)N[C@@H](C)C(=O)N1CCC[C@H]1C(=O)N1CCC[C@H]1C(=O)N1CCC[C@H]1C(=O)N[C@@H](CO)C(N)=O) [Example 88] | 545 | 4.24 | 0.0717 |
| XAEGTFTSDYSILLDKKAQXAFIEYLIEGGPSSGAPPPS (N-terminal Ac; D-Tyr1; K17((2-[2-(2-Amino-ethoxy)-ethoxy]-acetyl)2-(γ-Glu)-CO-(CH2)18-CO2H); Aib20; C-terminal NH2) [Example 79] | 429 | 2.69 | 0.0313 |
| YXXGTFTSDYSILLDKKAQXAFIEYLIEGGPSSGAPPPS (Aib2; γ-Glu3; K17((2-[2-(2-Amino-ethoxy)-ethoxy]-acetyl)2-(γ-Glu)-CO-(CH2)18-CO2H); Aib20; C-terminal NH2) [Example 91] | 540 | 5.23 | 1.8 |
| YXEGTFTSDYSILLDKKAQXAFIEYLIXGGPSSGAPPPS (Aib2; K17((2-[2-(2-Amino-ethoxy)-ethoxy]-acetyl)2-(γ-Glu)-CO-(CH2)18-CO2H); Aib20; D-Glu28; C-terminal NH2) [Example 83] | 320 | 7.1 | 0.142 |
| YXXGTFTSDYSILLDKKAQXAFIEYLIEGGPSSGAPPPS (Aib2; Aad3; K17((2-[2-(2-Amino-ethoxy)-ethoxy]-acetyl)2-(γ-Glu)-CO-(CH2)18-CO2H); Aib20; C-terminal NH2) [Example 89] | 324 | 2.64 | 0.045 |
| YXEGTFTSDYXILLDKKAQXAFIEYLIEGGPSSGAPPPS (Aib2; D-Ser11; K17((2-[2-(2-Amino-ethoxy)-ethoxy]-acetyl)2-(γ-Glu)-CO-(CH2)18-CO2H); Aib20; C-terminal NH2) [Example 81] | 344 | 2.88 | 0.198 |
| FXEGTXTSDYSIXLDEKAQXAFIEYLIEGGPSSGAPPPS (Aib2; αMeF6; αMeL13; K17((2-[2-(2-Amino-ethoxy)-ethoxy]-acetyl)2-(γ-Glu)-CO-(CH2)18-CO2H); Aib20; C-terminal NH2) [Example 119] | 30.6 | 9.87 | 0.0925 |
| YXEGTFTSDYSIXLDKKAQXAFIEYXIEGGPSSGAPPPS (Aib2; αMeL13; K17((2-[2-(2-Amino-ethoxy)-ethoxy]-acetyl)2-(γ-Glu)-CO-(CH2)18-CO2H); Aib20; αMeL26; C-terminal NH2) [Example 75] | 283 | 24.4 | 0.103 |
| XXEGTFTSDYSILLDKKAQXAFIEYLIEGGPSSGAPPPS (D-Tyr1; Aib2; K17((2-[2-(2-Amino-ethoxy)-ethoxy]-acetyl)2-(γ-Glu)-CO-(CH2)18-CO2H); Aib20; C-terminal NH2) [Example 78] | 215 | 3.94 | 0.163 |
| YXEGTFTSDYSIXLDKKAQXAXIEYLIEGGPSSGAPPPS (Aib2; αMeL13; K17((2-[2-(2-Amino-ethoxy)-ethoxy]-acetyl)2-(γ-Glu)-CO-(CH2)18-CO2H); Aib20; αMeF22; C-terminal NH2) [Example 74] | 69.8 | 5.99 | 0.0279 |
| YXEGTXTSDYSIXLDKKAQXAXIEYLIEGGPSSGAPPPS (Aib2; αMeF6 (printed aMeF); αMeL13; K17((2-[2-(2-Amino-ethoxy)-ethoxy]-acetyl)2-(γ-Glu)-CO-(CH2)18-CO2H); Aib20; αMeF22; C-terminal NH2) [Example 76] | 14.4 | 2.64 | 0.0659 |
| YXEGTXTSDYSIXLDEKAQXEFIHYLIEGGPSSGAPPPS (Aib2; αMeF(2F)6; αMeL13; K17((2-[2-(2-Amino-ethoxy)-ethoxy]-acetyl)2-(γ-Glu)-CO-(CH2)18-CO2H); Aib20; C-terminal NH2) [Example 153] | 43.8 | 22.2 | 0.0578 |
| YXEGTXTSDYSIXLDKKAQXHFIEYLIEGGPSSGAPPPS (Aib2; αMeF6; αMeL13; K17((2-[2-(2-Amino-ethoxy)-ethoxy]-acetyl)2-(γ-Glu)-CO-(CH2)18-CO2H); Aib20; C-terminal NH2) [Example 142] | 53.1 | 1.06 | 0.0275 |
| YXEGTXTSDYSIXLDKKAQXSFIEYLIEGGPSSGAPPPS (Aib2; αMeF6; αMeL13; K17((2-[2-(2-Amino-ethoxy)-ethoxy]-acetyl)2-(γ-Glu)-CO-(CH2)18-CO2H); Aib20; C-terminal NH2) [Example 138] | 61.2 | 0.926 | 0.0295 |
| YXEGTXTSDYSIXLDKKAQXAFIEYLIEGGPSSGAPPPS (Aib2; αMeF6; αMeL13; K17((2-[2-(2-Amino-ethoxy)-ethoxy]-acetyl)2-(γ-Glu)2-CO-(CH2)18-CO2H); Aib20; C-terminal NH2) [Example 125] | 54.4 | 3.19 | 0.0624 |
| YXEGTXTSDYSIXLDEKAQXEFISYLIEGGPSSGAPPPS (Aib2; αMeF(2F)6; αMeL13; K17((2-[2-(2-Amino-ethoxy)-ethoxy]-acetyl)2-(γ-Glu)-CO-(CH2)18-CO2H); Aib20; C-terminal NH2) [Example 150] | 63.2 | 30.5 | 0.0649 |
| YXEGTXTSDYSIXLDEKAQXEFIVYLIEGGPSSGAPPPS (Aib2; αMeF(2F)6; αMeL13; K17((2-[2-(2-Amino-ethoxy)-ethoxy]-acetyl)2-(γ-Glu)-CO-(CH2)18-CO2H); Aib20; C-terminal NH2) [Example 149] | 127 | 26.1 | 0.0708 |
| YXEGTXTSDYSIXLDKKAQXAFIEYLIEAGPSSGAPPPS (Aib2; αMeF6; αMeL13; K17((2-[2-(2-Amino-ethoxy)-ethoxy]-acetyl)2-(γ-Glu)-CO-(CH2)18-CO2H); Aib20; C-terminal NH2) [Example 126] | 101 | 1.46 | 0.0644 |
| HXEGTXTSDYSIXLDEKAQXEFIEYLIEGGPSSGAPPPS (Aib2; αMeF(2F)6; αMeL13; K17((2-[2-(2-Amino-ethoxy)-ethoxy]-acetyl)2-(γ-Glu)-CO-(CH2)18-CO2H); Aib20; C-terminal NH2) [Example 163] | 117 | 10.8 | 0.116 |
| YXEGTXTSDASIXLDKKAQXAFIEYLIEGGPSSGAPPPS (Aib2; αMeF6; αMeL13; K17((2-[2-(2-Amino-ethoxy)-ethoxy]-acetyl)2-(γ-Glu)-CO-(CH2)18-CO2H); Aib20; C-terminal NH2) [Example 145] | 158 | 2.22 | 0.0652 |
| YXEGTXTSDYSIXLDKKAQXDFIEYLIEGGPSSGAPPPS (Aib2; αMeF6; αMeL13; K17((2-[2-(2-Amino-ethoxy)-ethoxy]-acetyl)2-(γ-Glu)-CO-(CH2)18-CO2H); Aib20; C-terminal NH2) [Example 140] | 175 | 1.46 | 0.0474 |
| Y[Aib]EGT[αMePhe(2-F)]TSDHSI[αMeL]LDEK([AEEA-AEEA-γGlu-C20 diacid])AQ[Aib]EFIEYLIEGGPSSGAPPPS-NH2 (N-terminus assumed; SMILES CC[C@H](C)[C@H](NC(=O)[C@H](CC(C)C)NC(=O)[C@H](Cc1ccc(O)cc1)NC(=O)[C@H](CCC(=O)O)NC(=O)[C@@H](NC(=O)[C@H](Cc1ccccc1)NC(=O)[C@H](CCC(=O)O)NC(=O)C(C)(C)NC(=O)[C@H](CCC(N)=O)NC(=O)[C@H](C)NC(=O)[C@H](CCCCNC(=O)COCCOCCNC(=O)COCCOCCNC(=O)CC[C@H](NC(=O)CCCCCCCCCCCCCCCCCCC(=O)O)C(=O)O)NC(=O)[C@H](CCC(=O)O)NC(=O)[C@H](CC(=O)O)NC(=O)[C@H](CC(C)C)NC(=O)[C@](C)(CC(C)C)NC(=O)[C@@H](NC(=O)[C@H](CO)NC(=O)[C@H](Cc1c[nH]cn1)NC(=O)[C@H](CC(=O)O)NC(=O)[C@H](CO)NC(=O)[C@@H](NC(=O)[C@](C)(Cc1ccccc1F)NC(=O)[C@@H](NC(=O)CNC(=O)[C@H](CCC(=O)O)NC(=O)C(C)(C)NC(=O)[C@@H](N)Cc1ccc(O)cc1)[C@@H](C)O)[C@@H](C)O)[C@@H](C)CC)[C@@H](C)CC)C(=O)N[C@@H](CCC(=O)O)C(=O)NCC(=O)NCC(=O)N1CCC[C@H]1C(=O)N[C@@H](CO)C(=O)N[C@@H](CO)C(=O)NCC(=O)N[C@@H](C)C(=O)N1CCC[C@H]1C(=O)N1CCC[C@H]1C(=O)N1CCC[C@H]1C(=O)N[C@@H](CO)C(N)=O) [Example 154] | 762 | 5.64 | 0.061 |
| YXEGTXTSDXSIXLDXKAQXEFIXXLIEGGPSSGAPPPS (not fully specified; Aib2; αMeF(2F)6; 4Pal10; αMeL13; Orn16; K17((2-[2-(2-Amino-ethoxy)-ethoxy]-acetyl)2-(γ-Glu)-CO-(CH2)16-CO2H); Aib20; D-Glu24; αMeY25; C-terminal NH2) [Example 4] | 686 | 1.63 | 0.0528 |
| YXEGTXTSDVSIXLDXKAQXEFIXXLIEGGPSSGAPPPS (not fully specified; Aib2; αMeF(2F)6; αMeL13; Orn16; K17((2-[2-(2-Amino-ethoxy)-ethoxy]-acetyl)2-(γ-Glu)-CO-(CH2)16-CO2H); Aib20; D-Glu24; αMeY25; C-terminal NH2) [Example 5] | 519 | 0.902 | 0.0611 |
